Test results as given in paper PMC8614642.

Target: recombinant K38 depolymerase region (residues 147-742) of the tailspike gp46 of Acinetobacter pittii phage vB_Api_3043-K38 (Acinetobacter pittii phage vB_Api_3043-K38)
Test: SEC; analytical size exclusion on Superose 6 10/300 GL, 10 mM PBS pH 7.5, 4 °C, 0.75 mL/min, mass estimated from calibration standards

For “recombinant K38 depolymerase region (residues 147-742) of the tailspike gp46 of Acinetobacter pittii phage vB_Api_3043-K38 (domain or fragment)”, the stoichiometry N was 3.
